The data set concerns the target dna2-D657A (nuclease-dead);RPA (Saccharomyces cerevisiae;Saccharomyces …, UniProt P38859;P22336;P26754;P26755 1-1522;1-621;1-273;1-122, D657A|). As to the kind of experiment: EMSA; ternary complex; EMSA: 25 mM Tris-HCl pH 7.5, 150 mM KCl, 1 mM DTT, 100 µg/mL BSA, 5 nM DNA, 30 °C 10 min, 4% native PAGE in 0.2x TBE; DNA curtains: 50 or 150 mM NaCl, 0.1 nM RPA-GFP. To be noted: protein: recombinant;recombinant; tags: His6, FLAG;none; copies: 1;1;1;1; label: 32P 5'-end; 5' overhang 30 nt (dT30), 20 bp duplex.

dna2-D657A (nuclease-dead);RPA, sequence (P38859 whole entry D657A, chain 1 of 4): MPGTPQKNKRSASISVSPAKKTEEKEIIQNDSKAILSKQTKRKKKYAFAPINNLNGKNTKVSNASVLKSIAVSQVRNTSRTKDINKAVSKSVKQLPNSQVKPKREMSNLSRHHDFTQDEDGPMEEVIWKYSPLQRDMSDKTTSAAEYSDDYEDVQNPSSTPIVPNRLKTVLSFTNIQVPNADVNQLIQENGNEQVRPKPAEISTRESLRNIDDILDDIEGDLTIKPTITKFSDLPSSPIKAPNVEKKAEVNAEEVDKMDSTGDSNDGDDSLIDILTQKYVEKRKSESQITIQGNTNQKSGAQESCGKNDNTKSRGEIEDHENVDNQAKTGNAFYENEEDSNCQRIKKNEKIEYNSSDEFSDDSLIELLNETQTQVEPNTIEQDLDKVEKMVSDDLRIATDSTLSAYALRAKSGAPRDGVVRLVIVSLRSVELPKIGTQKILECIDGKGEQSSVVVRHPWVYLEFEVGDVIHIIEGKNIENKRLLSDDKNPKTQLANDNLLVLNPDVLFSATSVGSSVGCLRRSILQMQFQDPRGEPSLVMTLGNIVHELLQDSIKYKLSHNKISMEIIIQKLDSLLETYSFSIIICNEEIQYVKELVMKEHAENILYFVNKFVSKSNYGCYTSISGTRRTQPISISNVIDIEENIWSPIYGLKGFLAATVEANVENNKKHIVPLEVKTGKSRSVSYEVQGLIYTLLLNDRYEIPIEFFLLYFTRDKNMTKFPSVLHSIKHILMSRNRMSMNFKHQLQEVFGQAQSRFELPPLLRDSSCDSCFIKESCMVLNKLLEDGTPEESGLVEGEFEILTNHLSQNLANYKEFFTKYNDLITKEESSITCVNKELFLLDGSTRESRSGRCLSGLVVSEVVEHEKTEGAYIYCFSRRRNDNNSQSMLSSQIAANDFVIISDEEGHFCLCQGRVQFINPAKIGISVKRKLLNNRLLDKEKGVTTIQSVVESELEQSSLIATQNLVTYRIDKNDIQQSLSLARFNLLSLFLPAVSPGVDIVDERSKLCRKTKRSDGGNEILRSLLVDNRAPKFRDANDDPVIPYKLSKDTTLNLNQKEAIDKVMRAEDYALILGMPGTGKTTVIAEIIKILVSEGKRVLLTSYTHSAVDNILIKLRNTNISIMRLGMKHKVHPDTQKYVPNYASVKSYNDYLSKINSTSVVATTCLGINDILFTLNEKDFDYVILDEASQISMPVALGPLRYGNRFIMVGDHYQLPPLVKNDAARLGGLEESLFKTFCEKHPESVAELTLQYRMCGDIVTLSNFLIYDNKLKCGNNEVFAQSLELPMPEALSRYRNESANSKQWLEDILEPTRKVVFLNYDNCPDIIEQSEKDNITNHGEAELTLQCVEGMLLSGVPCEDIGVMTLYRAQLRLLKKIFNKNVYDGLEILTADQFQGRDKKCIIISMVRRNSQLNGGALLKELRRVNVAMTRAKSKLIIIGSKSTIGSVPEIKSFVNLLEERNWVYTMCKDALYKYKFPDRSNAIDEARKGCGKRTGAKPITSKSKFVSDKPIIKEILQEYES
dna2-D657A (nuclease-dead);RPA, sequence (P22336 whole entry, chain 2 of 4): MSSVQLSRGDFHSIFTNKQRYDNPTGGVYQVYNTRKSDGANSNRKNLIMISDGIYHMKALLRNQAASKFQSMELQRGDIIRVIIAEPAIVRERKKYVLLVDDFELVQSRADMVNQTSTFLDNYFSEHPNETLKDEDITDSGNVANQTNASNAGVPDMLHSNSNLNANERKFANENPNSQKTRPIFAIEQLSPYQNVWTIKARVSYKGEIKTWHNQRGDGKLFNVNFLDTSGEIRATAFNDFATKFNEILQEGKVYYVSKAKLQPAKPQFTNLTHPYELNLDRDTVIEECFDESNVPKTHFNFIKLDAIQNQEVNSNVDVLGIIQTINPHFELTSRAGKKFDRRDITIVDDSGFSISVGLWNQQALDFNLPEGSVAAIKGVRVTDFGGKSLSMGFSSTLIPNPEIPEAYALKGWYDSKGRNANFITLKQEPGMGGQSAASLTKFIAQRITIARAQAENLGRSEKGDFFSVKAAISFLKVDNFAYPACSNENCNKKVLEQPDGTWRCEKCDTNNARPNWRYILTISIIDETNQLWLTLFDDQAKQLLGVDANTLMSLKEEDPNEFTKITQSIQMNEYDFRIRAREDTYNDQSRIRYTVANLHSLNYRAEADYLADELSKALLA
dna2-D657A (nuclease-dead);RPA, sequence (P26754 whole entry, chain 3 of 4): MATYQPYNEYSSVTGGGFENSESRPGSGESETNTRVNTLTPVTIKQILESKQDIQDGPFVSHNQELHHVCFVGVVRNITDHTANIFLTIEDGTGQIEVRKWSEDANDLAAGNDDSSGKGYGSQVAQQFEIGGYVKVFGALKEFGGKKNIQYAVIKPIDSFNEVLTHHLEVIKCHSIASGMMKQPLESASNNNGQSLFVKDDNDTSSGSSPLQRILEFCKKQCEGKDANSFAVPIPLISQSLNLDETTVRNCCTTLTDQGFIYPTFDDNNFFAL
dna2-D657A (nuclease-dead);RPA, sequence (P26755 whole entry, chain 4 of 4): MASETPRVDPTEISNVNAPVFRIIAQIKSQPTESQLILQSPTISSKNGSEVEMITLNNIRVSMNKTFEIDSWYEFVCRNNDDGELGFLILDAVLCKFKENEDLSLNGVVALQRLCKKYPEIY

B1: 5'-overhanging dT(30) DNA (S10+S11) (mixed)
DNA 1: TTTTTTTTTTTTTTTTTTTTTTTTTTTTTTTTGATAAGAGGTCATTTGAA
DNA 2: TTCAAATGACCTCTTATCAA
As for B1, the binding result is listed as “binds”.

Values taken from publication PMC8766458, “Deciphering the mechanism of processive ssDNA digestion by the Dna2-RPA ensemble” (Nature Communications, 2022).
